B1: 5-aminolevulinate synthase from Caulobacter crescentus, heme form (red form) (enzyme)
chain: not shown
notes: 5-aminolevulinate synthase (ALAS) of Caulobacter crescentus CB15, gene CC_1355, 408 residues, predicted mass 44,273 Da; gene PCR-amplified from genomic DNA; Same polypeptide as m1; also called cALAS; red form of cALAS; source: E. coli BL21(DE3) pLysS, pET-28b, purified (HisTrap FF Crude, Mono Q; second, reddish-brown eluate of the anion exchange column)
B2: 5-aminolevulinate synthase from Caulobacter crescentus, PLP form (yellow form) (enzyme)
chain: not shown
modifications: pyridoxal 5'-phosphate (PLP), predicted to bind to the ε-amino group of Lys248
notes: 5-aminolevulinate synthase (ALAS) of Caulobacter crescentus CB15, gene CC_1355, 408 residues, predicted mass 44,273 Da; gene PCR-amplified from genomic DNA; Same polypeptide as m2; also called cALAS; C. crescentus ALAS; source: E. coli BL21(DE3) pLysS, pET-28b, purified (HisTrap FF Crude, Mono Q; first, yellow eluate of the anion exchange column)

Biological target: the molecule itself
Assay: SEC + native gel or EMSA; data not shown; purified yellow (PLP) and red (heme) fractions of recombinant cALAS; oligomeric state in solution; conditions not given

Row | Protein | stoichiometry N
1 | B1 | 2
2 | B2 | 2

Reference: publication PMC6154995, “Heme-dependent Inactivation of 5-Aminolevulinate Synthase from Caulobacter crescentus” (Scientific Reports, 2018)
